Data as given in the supplement of paper PMC10065799, “High-throughput profiling of sequence recognition by tyrosine kinases and SH2 domains using bacterial peptide display” (eLife, 2023).

Assays:
[1] = test system: AncSZ; assay: phosphorylation enrichment, bacterial display (enrichment ratio); higher = better substrate or ligand; peptides without Tyr show the background
[2] = target: EPHB1 (UniProt P54762); assay: as above
[3] = target: EPHB2 (UniProt P29323); assay: as above
[4] = target: FGFR1 (UniProt P11362); assay: as above
[5] = target: FGFR3 (UniProt P22607); assay: as above
[6] = test system: Fer (mouse); assay: as above
[7] = target: Fes (UniProt P07332); assay: as above
[8] = target: Fyn (UniProt P06241); assay: as above
[9] = target: Hck (UniProt P08631); assay: as above
[10] = target: Jak2 (UniProt O60674); assay: as above
[11] = target: MERTK (UniProt Q12866); assay: as above
[12] = test system: c-Abl (mouse); assay: as above
[13] = test system: c-Src; assay: as above
[14] = target: Grb2 SH2 (UniProt P62993); assay: SH2 binding enrichment of the phosphorylated peptide, bacterial display (enrichment ratio); higher = better substrate or ligand; peptides without Tyr show the background
[15] = target: SHP2-C SH2; assay: as above
[16] = target: c-Src SH2; assay: as above
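Throughout, for SH2 binding enrichment of the phosphorylated peptide, bacterial display: peptide library displayed on the E. coli surface as eCPX fusions, selected cells deep-sequenced, score is each peptide's frequency after selection divided by its frequency in the input.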
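Throughout, for phosphorylation enrichment, bacterial display: 11-residue human phosphosite peptides and single-mutation variants displayed on the E. coli surface, counted by deep sequencing, each peptide's frequency after selection divided by its frequency in the unselected input library; frequency after pTyr selection over input frequency; kinase dosed for 20-30% of maximal phosphorylation in three min.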

Sequence of MERTK (Q12866 whole entry, looked up): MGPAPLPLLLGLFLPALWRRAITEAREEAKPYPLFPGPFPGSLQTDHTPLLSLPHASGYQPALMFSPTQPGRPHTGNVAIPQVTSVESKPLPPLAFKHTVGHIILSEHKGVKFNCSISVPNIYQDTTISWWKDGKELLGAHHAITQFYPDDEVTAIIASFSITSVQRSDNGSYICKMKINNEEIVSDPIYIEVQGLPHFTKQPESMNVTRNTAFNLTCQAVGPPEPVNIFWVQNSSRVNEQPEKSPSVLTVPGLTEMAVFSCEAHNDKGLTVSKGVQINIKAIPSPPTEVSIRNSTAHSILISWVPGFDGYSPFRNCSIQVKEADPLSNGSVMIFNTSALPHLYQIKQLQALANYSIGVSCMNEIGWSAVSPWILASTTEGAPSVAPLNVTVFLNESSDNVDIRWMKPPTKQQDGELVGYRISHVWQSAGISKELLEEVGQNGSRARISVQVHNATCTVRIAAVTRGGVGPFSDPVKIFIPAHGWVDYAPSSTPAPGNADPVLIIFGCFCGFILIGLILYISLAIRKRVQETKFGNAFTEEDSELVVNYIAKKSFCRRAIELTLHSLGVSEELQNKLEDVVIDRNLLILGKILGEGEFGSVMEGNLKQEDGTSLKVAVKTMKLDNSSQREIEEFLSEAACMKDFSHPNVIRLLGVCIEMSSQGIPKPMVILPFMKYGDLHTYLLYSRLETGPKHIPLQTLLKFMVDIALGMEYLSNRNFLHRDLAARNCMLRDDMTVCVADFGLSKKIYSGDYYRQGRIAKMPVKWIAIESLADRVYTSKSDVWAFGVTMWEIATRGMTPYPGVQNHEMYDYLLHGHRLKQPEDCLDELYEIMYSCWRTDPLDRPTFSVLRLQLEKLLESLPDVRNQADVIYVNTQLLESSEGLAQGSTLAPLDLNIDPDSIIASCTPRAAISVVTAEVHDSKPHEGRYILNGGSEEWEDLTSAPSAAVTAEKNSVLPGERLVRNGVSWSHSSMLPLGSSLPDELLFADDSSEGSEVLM
Sequence of Fyn (P06241 whole entry, looked up): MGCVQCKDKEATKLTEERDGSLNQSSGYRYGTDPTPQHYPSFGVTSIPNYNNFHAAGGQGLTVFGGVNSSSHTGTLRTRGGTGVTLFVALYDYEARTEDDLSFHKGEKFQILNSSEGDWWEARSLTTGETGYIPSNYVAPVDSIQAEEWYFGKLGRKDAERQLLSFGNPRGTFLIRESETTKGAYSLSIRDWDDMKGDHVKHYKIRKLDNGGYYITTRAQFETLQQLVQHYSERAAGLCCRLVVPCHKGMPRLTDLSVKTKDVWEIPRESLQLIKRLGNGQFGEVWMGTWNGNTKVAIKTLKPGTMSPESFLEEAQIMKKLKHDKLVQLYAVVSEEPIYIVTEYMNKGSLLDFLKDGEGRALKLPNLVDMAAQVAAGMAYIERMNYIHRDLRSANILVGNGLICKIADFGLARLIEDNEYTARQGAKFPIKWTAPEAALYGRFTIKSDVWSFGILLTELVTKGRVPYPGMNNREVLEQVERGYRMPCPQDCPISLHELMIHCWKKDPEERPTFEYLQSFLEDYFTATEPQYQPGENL
Sequence of Hck (P08631 whole entry, looked up): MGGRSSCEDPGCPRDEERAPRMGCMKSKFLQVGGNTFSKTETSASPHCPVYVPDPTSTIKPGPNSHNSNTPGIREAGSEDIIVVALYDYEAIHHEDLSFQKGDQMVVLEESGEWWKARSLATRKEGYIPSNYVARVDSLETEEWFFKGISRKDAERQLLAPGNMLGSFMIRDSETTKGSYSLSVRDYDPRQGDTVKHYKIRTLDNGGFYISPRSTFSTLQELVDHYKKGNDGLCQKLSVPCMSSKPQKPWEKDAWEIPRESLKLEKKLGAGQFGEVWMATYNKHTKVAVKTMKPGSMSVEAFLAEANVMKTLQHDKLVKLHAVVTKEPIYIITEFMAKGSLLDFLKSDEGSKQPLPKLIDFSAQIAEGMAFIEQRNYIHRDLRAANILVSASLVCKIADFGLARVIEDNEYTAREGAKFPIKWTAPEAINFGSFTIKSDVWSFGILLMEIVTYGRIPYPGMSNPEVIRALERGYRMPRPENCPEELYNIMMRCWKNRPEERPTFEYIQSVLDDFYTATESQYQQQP
Sequence of Jak2 (O60674 whole entry, looked up): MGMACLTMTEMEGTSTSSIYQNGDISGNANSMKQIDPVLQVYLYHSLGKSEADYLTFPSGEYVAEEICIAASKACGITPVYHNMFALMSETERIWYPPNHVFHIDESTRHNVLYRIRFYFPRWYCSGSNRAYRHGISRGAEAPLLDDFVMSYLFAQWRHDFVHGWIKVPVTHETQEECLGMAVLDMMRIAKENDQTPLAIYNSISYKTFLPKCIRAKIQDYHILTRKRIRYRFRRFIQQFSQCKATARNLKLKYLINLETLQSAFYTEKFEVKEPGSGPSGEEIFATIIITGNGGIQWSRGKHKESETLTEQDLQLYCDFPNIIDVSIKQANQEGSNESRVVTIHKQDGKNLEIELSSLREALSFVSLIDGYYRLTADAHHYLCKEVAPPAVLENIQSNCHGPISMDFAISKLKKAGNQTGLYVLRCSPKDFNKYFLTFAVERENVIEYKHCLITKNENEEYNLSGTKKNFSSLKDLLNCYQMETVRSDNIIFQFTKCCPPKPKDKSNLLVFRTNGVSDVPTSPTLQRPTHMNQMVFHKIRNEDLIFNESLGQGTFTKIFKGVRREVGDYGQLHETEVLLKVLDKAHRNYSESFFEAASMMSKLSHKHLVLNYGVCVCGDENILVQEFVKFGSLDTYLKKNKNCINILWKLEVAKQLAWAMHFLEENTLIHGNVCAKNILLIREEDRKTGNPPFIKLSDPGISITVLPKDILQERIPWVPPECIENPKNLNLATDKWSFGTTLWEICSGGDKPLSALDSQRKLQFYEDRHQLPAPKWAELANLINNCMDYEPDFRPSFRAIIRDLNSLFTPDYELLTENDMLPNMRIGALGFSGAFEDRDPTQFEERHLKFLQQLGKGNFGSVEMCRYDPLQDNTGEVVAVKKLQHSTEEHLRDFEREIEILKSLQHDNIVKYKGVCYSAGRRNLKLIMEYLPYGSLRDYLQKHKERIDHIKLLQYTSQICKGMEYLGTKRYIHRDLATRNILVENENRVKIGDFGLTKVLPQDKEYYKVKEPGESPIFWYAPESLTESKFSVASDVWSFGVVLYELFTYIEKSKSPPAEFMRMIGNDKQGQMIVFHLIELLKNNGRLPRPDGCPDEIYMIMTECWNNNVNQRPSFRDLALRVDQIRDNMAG
Sequence of Grb2 SH2 (P62993 whole entry, looked up): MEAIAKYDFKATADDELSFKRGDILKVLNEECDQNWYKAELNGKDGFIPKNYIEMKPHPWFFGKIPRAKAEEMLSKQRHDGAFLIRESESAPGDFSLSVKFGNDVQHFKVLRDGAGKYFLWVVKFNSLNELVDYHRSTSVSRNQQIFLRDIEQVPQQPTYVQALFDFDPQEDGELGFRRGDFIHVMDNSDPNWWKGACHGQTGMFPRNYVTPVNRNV
Sequence of FGFR3 (P22607 whole entry, looked up): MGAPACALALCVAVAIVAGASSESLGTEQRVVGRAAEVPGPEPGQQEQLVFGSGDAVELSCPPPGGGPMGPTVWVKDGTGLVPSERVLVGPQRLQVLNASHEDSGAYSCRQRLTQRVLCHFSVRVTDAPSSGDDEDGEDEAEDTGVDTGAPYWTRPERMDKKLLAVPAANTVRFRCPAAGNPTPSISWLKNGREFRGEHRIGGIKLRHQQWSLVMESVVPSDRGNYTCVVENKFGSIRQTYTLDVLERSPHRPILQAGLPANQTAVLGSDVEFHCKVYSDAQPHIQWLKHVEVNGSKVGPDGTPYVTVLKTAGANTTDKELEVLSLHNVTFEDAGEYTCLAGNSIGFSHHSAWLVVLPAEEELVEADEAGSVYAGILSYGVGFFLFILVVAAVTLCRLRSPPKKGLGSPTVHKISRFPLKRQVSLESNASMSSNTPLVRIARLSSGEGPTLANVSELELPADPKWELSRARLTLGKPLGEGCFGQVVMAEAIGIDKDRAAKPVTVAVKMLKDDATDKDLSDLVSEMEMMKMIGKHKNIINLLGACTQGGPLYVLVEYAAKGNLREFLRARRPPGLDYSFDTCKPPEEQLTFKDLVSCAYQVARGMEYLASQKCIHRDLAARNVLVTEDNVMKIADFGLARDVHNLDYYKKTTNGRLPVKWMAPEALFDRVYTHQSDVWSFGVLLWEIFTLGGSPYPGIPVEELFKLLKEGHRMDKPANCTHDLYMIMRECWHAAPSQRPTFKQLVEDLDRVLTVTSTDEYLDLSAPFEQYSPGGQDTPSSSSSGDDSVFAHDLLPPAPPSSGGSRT
Sequence of Fes (P07332 whole entry, looked up): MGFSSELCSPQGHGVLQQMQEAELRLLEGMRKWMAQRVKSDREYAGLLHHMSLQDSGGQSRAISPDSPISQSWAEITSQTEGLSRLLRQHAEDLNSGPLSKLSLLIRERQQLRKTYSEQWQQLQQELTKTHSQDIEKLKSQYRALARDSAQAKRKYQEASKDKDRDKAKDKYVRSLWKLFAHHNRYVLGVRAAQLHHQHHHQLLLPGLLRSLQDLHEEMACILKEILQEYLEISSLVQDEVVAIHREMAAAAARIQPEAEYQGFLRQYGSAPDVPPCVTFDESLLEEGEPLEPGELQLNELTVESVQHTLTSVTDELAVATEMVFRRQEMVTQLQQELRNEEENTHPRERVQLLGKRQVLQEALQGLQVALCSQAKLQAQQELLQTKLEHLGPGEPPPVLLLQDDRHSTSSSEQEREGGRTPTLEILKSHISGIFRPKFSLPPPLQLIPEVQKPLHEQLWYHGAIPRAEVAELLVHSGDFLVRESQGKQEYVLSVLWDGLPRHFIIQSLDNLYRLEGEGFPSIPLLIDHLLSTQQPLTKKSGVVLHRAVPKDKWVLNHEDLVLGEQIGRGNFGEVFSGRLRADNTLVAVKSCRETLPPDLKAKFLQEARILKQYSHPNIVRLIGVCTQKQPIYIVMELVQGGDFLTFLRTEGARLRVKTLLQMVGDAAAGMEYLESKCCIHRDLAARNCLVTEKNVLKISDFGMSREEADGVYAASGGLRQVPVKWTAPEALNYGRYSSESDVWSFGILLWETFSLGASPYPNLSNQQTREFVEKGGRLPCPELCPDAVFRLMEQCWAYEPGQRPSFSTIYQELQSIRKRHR

Sequence	phosphorylation enrichment [1]	phosphorylation enrichment [2]	phosphorylation enrichment [3]	phosphorylation enrichment [4]	phosphorylation enrichment [5]	phosphorylation enrichment [6]	phosphorylation enrichment [7]	phosphorylation enrichment [8]	phosphorylation enrichment [9]	phosphorylation enrichment [10]	phosphorylation enrichment [11]	phosphorylation enrichment [12]	phosphorylation enrichment [13]	SH2 binding enrichment [14]	SH2 binding enrichment [15]	SH2 binding enrichment [16]
GMEIVYVFVKK [DNAI2_Y5_YF]	1.4	0.709	0.654	0.587	0.862	0.58	1.44	0.554	0.673	1.59	0.481	1.22	0.627	0.941	0.787	0.556
GMSQAYSFSQR [DES_Y5_S7F]	0.761	0.317	0.453	0.392	0.481	0.338	0.755	0.389	0.379	0.551	0.721	0.454	0.495	0.818	0.747	0.476
GNLLIYTEFGN [HGD_Y166_K171N]	1.31	2.71	1.89	0.726	0.903	0.775	1.15	5.81	3.51	0.997	3.75	2.23	4.74	0.736	0.541	0.462
GNLQEYLTRHV [TGFBR2_Y336]	0.794	0.474	0.564	0.516	0.584	0.462	0.828	0.455	0.465	0.581	0.368	0.667	0.363	0.744	0.659	0.451
GQAPGYSFTAA [CYCS_Y47_YF]	0.502	0.354	0.427	0.422	0.428	0.364	0.509	0.393	0.416	0.471	0.389	0.504	0.503	0.653	0.8	0.577
GRDVIYKGFED [NFU1_Y194_G190R]	0.77	0.528	0.401	0.468	0.539	0.426	1	2.94	0.96	0.767	0.391	0.561	1.97	0.696	0.769	0.51
GRLGEYDIDEV [SMS_Y134_V132G]	1.3	0.909	0.859	0.551	1	0.688	1.45	0.789	0.647	1.27	0.494	0.881	0.643	0.649	0.484	0.555
GRTGHYLCNAC [GATA1_Y223_D218G]	0.445	0.4	0.287	0.436	0.433	0.32	0.631	0.332	0.392	0.446	0.481	0.375	0.296	1.25	0.872	0.917
GSERDYTYDEL [EIF2S2_Y174_E177D]	1.14	0.504	0.879	0.507	0.614	0.617	1.01	0.59	0.849	0.999	0.424	0.803	0.766	0.82	0.722	1.66
GSESDYIIMPN [SCARB1_Y133_V135I]	2.88	6.96	6.96	5.65	3.91	0.411	0.826	0.456	0.526	0.919	0.551	0.466	0.6	0.762	0.873	0.431
GSSKIYFLHPD [TLR5_Y108]	0.849	0.529	0.624	2.48	1.85	0.403	0.844	1.84	1.21	0.714	2.89	0.642	1.83	1.16	1.18	0.751
GYRVCYTPDSR [PTPRF_Y451_Y450C]	1.07	0.635	0.592	0.492	0.739	0.505	1.26	0.498	0.547	0.975	0.434	0.794	0.522	0.769	0.717	0.591
HCEDGYPGGSD [CTNND1_Y221_Y217C]	1.44	1.03	0.743	0.664	1.15	0.672	1.81	0.817	0.714	1.34	0.626	1.35	0.514	1.06	0.653	0.64
HDHFGYRQSVT [CD55_Y245_R240H_YF]	0.733	0.65	0.434	0.479	0.528	0.482	0.896	0.444	0.51	0.536	0.346	0.659	0.725	0.803	0.871	0.628
HDHYGYRQSVT [CD55_Y245_R240H]	0.801	0.4	0.713	0.695	0.623	0.743	1.06	0.94	0.969	1.06	0.883	0.622	0.538	0.895	0.833	0.654
HEDPMYDIIRD [RP9_Y142]	1.94	3.51	3.85	0.718	0.687	4.2	1.48	5.63	5.56	1.29	5.24	1.27	5.36	0.63	0.664	1.92
HEKKVYSFCGT [RPS6KA3_Y226_A225V]	0.991	0.736	0.68	0.74	0.842	0.431	1.03	0.58	0.645	0.692	0.881	0.838	0.742	0.91	0.598	0.747

Sequence	phosphorylation enrichment [1]	phosphorylation enrichment [2]	phosphorylation enrichment [3]	phosphorylation enrichment [4]	phosphorylation enrichment [5]	phosphorylation enrichment [6]	phosphorylation enrichment [7]	phosphorylation enrichment [8]	phosphorylation enrichment [9]	phosphorylation enrichment [10]	phosphorylation enrichment [11]	phosphorylation enrichment [12]	phosphorylation enrichment [13]	SH2 binding enrichment [14]	SH2 binding enrichment [15]	SH2 binding enrichment [16]
HFGCVYHGTLL [MET_Y1093]	1.8	1.21	0.991	1.04	1.19	0.967	1.67	1.08	0.9	1.28	0.637	1.33	4.11	0.98	0.754	0.524
HFIKLYEEKTG [PARP1_Y618_M615I]	1.69	1.17	1.08	0.456	0.807	0.798	0.952	0.978	0.828	1.03	0.694	0.781	0.392	1.16	1.57	0.872
HGEAFYSEVKA [PAK5_Y182_P187A_YF]	0.971	1.26	1.47	4.75	2.63	11	1.01	3.92	5.57	0.834	8.27	0.619	4.05	1.21	0.931	2.48
HHTDEYEYDEL [TGM1_Y134]	2.01	1.02	0.904	1.02	1.05	0.958	1.59	1.01	0.943	1.19	0.687	1.08	0.916	0.906	0.749	0.584
HITQVYGFYDE [PPP2CA_Y127_Q122H]	2.11	1.31	1.85	2.27	1.26	2.21	1.79	13.2	5.95	1.88	2.79	1.58	12.3	0.754	0.651	1.79
HKGASYAFRLS [PTPRD_Y891_V892A]	1.06	0.935	0.581	0.66	1.11	0.645	0.962	0.838	0.49	0.827	0.525	0.846	0.785	0.891	0.696	0.698
HKLSYYEYDFE [BTK_Y40]	1.86	2.02	1.38	7.25	4.03	0.64	2.13	2.13	0.952	1.6	3.67	1.26	2.48	1.05	0.941	3.4
HLVLNYGVCVC [JAK2_Y613]	2.33	1.61	1.27	0.91	1.8	0.99	2.31	1.1	0.985	1.99	1.44	1.49	0.779	0.796	0.795	0.52
HNMPIYEGYAL [ACTA1_Y168_V165M]	1.3	19.7	25.5	0.465	0.654	17.4	2.64	13.1	13.5	0.831	11	11.3	10.4	0.71	0.893	2.93
HNVPIYEGYGL [ACTA1_Y168_A172G]	1.52	31.8	41.9	0.666	0.941	27.9	5.48	20	17.4	0.805	10.9	3.23	11.5	0.755	0.886	1.33
HPHECYAKVFD [ALB_Y394_D389H]	1.16	0.641	0.441	0.636	0.845	0.624	1.36	0.622	0.654	1.3	0.764	1.01	0.659	0.944	2.67	3.07
HRDDGYMPMSP [IRS1_Y612_T608R]	0.785	0.577	0.53	0.534	0.715	0.683	0.817	0.572	0.488	1.16	0.37	0.756	0.589	0.746	0.545	3.65
HRGCLYLAIEF [TEK_Y899_Y897C_YF]	1.29	0.758	1.81	0.667	1.17	0.511	1.37	0.26	0.367	1.33	0.467	1.31	0.49	0.686	0.316	0.206
HSGVSYYINLC [IGF2R_Y2024_N2020S]	1.59	1.15	0.942	0.849	1.09	0.951	1.93	0.661	0.729	2.38	0.563	1.21	0.488	0.722	0.566	0.533
HSKGIYYVQLE [MGAT4B_Y262_Q257H]	1.28	1.68	1.03	5.54	3.3	0.615	1.39	3.29	2.88	4.4	9.49	1.02	4.78	1.08	1.76	1.31
HSVLQYVGGVM [FGGY_Y136]	1.05	0.943	0.977	0.944	1.18	0.73	1.48	0.776	0.833	1.11	0.986	0.846	0.738	0.961	0.511	0.493
